The text below walks through data of US20210253724A1 (Hoffmann-La Roche, published 2021).

In general, EC50 refers to the concentration giving half of the maximal effect.

For assay [1], the target named is T1, cynomolgus monkey CEACAM5 on CHO-k1-cynoCEACAM5 clone 8 cells (cynomolgus monkey).
T1 construct: whole, on cells
The experiment in a line: flow cytometry on CHO-k1-cynoCEACAM5 clone 8. Background: In flow cytometry, cells or beads pass a laser one at a time.
Method: (§1) Cells were incubated for 30 min at 4° C. and then washed twice with 80 μL/well DPBS. […] Cells were washed twice with 80 μL/well DPBS and then fixed in 30 μL/well DPBS containing 1% Formaldehyde for at least 15 minutes. The same or the next day cells were resuspended in 50 μL/well FACS-buffer and acquired using MACSQuant Analyzer X (Miltenyi Biotec).

In assay [2] the target is T2, human 4-1BB (CD137) on Jurkat-hu4-1BB-NFκB-luc2 reporter cells (human, UniProt Q07011 24-255). Nature of the assay: cell-based or functional assay.
Assay [3] has as its target T3, human CEACAM5 (CEA) on cells (human, UniProt P06731 35-685).
T3 construct: Endogenous on MKN45 cells; full-length cDNA transfected into CHO-K1 cells; also called CEA expressed on MKN45 cells; CHO-k1-huCEACAM5 clone 11, clone 12, clone 13
T3 sequence: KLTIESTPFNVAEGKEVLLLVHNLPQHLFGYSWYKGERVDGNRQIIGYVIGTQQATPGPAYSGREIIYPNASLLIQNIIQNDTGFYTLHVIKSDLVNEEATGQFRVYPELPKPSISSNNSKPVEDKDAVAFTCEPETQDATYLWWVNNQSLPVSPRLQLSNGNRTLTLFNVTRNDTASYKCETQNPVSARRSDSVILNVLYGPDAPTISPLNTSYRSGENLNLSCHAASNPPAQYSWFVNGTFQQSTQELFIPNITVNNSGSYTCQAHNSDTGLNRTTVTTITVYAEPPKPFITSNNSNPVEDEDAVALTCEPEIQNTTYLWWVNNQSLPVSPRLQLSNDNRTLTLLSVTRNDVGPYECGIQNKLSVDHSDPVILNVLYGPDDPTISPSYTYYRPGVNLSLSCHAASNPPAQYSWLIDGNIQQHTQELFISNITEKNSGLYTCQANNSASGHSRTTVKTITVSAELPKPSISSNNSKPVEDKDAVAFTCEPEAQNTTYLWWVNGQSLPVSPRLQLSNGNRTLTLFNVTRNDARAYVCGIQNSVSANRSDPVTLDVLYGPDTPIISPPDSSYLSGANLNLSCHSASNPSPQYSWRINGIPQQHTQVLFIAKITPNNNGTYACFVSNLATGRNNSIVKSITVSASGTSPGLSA
Nature of the assay: flow cytometry on CHO-k1-humanCEACAM5 clone 13.
Method: as §1

Assay [4] has as its target T3, human CEACAM5 (CEA) on cells. The experiment in a line: flow cytometry on CHO-k1-humanCEACAM5 clone 11.
Method: as §1
Assay [5] deals with T1, cynomolgus monkey CEACAM5 on …. The experiment in a line: flow cytometry on CHO-k1-cynoCEACAM5 clone 8. Also noted: unit not given beside the values.
The target in assay [6] is T3, human CEACAM5 (CEA) on cells. The experiment in a line: flow cytometry on CHO-k1-humanCEACAM5 clone 12.
Method: as §1
The target of assay [7] is T2, human 4-1BB (CD137) on …. Nature of the assay: cell-based or functional assay. Set-up: AUC of NFκB-luciferase activation curve, no CEA+ cells / AUC of NFκB-luciferase activation curve, with CHO-k1-cynoCEACAM5 clone 8: unit not given beside the values.
The target of another assay is T4, human 4-1BB Fc(kih) (human, UniProt P01857 104-328 = IgG part).
T4 construct: Monomeric Fc-linked antigen: 4-1BB ectodomain, AcTEV site, Fc knob and Avi tag, paired with an Fc hole chain; also called hu4-1BB-Fc(kih); human 4-1BB antigen Fc knob chain with Fc hole chain
Nature of the assay: SPR (Biacore T200), human 4-1BB-Fc(kih) amine-coupled on a CM5 chip, antibody 150 nM as analyte 1. (SPR reads the build-up and loss of mass on a sensor chip optically.)

Assay [8] concerns the target T2, human 4-1BB (CD137) on …. The experiment in a line: cell-based or functional assay. The source holds these as a separate data set.
Assay [9] deals with T3, human CEACAM5 (CEA) on cells. Nature of the assay: flow cytometry on CHO-K1-humanCEACAM5 clone 12 cells, goat F(ab')2 anti-human Fcγ-PE, median fluorescence intensity baseline corrected.
Method: as §1
In assay [10] the target is T2, human 4-1BB (CD137) on …. The experiment in a line: flow cytometry on Jurkat-hu4-1BB-NFκB-luc2 cells.
Method: Plates were incubated for 30 minutes at 4° C. and washed once with 200 μL 4° C. cold DPBS buffer. […] Cells were washed twice with 200 μL 4° C. DPBS buffer and then resuspended in 50 μL/well DPBS containing 1% Formaldehyde for fixation. The same or the next day cells were resuspended in 100 μL FACS-buffer and acquired using MACSQuant Analyzer X (Miltenyi Biotec).
Assay [11] deals with T5, human PD-L1 on MKN45-huPD-L1 cells (human, UniProt Q9NZQ7 19-290).
T5 construct: Full-length cDNA transfected into MKN45 cells; also called humanPD-L1-expressing MKN45 cells
Nature of the assay: flow cytometry on MKN45-huPD-L1 cells, goat F(ab')2 anti-human Fcγ-PE, gMFI baseline corrected.
Method: as §1

T4 sequence (P01857 other isoform, or with tags, fused parts or gaps limits assumed): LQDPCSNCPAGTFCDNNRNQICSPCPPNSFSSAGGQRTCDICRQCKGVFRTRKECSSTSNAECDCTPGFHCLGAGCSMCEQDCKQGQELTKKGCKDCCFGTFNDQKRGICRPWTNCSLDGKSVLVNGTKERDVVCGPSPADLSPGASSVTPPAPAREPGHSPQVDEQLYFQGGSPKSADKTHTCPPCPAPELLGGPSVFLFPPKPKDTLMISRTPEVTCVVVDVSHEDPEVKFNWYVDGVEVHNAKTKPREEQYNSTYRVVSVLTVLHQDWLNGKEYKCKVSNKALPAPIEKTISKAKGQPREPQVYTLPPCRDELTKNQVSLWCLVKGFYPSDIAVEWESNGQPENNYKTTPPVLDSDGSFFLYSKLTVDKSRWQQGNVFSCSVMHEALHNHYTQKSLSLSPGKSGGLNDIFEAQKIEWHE
T5 sequence (Q9NZQ7 19-290 limits assumed): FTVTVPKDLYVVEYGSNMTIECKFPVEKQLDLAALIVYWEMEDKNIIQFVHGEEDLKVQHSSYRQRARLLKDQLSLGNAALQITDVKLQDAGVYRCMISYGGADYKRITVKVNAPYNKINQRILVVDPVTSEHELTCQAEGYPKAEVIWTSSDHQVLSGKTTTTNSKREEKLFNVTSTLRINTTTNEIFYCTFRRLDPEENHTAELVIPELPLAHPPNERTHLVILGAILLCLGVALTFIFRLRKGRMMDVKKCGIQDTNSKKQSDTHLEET
Method for human 4-1BB Fc(kih): All SPR experiments were performed on a Biacore T200 at 25° C. with HBS-EP as running buffer (0.01 M HEPES pH 7.4, 0.15 M NaCl, 3 mM EDTA, 0.005% Surfactant P20, Biacore, Freiburg/Germany). […] Immobilization level of approx. 900 RU was used.
The dissociation was monitored for 240 sec. Bulk refractive index differences were corrected for by subtracting the response obtained in a reference flow cell, where no protein was immobilized.

B1: 2+1 H2H 4-1BB (20H4.9)/CEA (A5B7) P329GLALA IgG1 (bispecific antibody)
heavy 1: QVQLQQWGAGLLKPSETLSLTCAVYGGSFSGYYWSWIRQSPEKGLEWIGEINHGGYVTYNPSLESRVTISVDTSKNQFSLKLSSVTAADTAVYYCARDYGPGNYDWYFDLWGRGTLVTVSSASTKGPSVFPLAPSSKSTSGGTAALGCLVEDYFPEPVTVSWNSGALTSGVHTFPAVLQSSGLYSLSSVVTVPSSSLGTQTYICNVNHKPSNTKVDEKVEPKSCDKTHTCPPCPAPEAAGGPSVFLFPPKPKDTLMISRTPEVTCVVVDVSHEDPEVKFNWYVDGVEVHNAKTKPREEQYNSTYRVVSVLTVLHQDWLNGKEYKCKVSNKALGAPIEKTISKAKGQPREPQVCTLPPSRDELTKNQVSLSCAVKGFYPSDIAVEWESNGQPENNYKTTPPVLDSDGSFFLVSKLTVDKSRWQQGNVFSCSVMHEALHNHYTQKSLSLSP
heavy 2: not shown
light 1: not shown
light 2: EVKLVESGGGLVQPGGSLRLSCATSGFTFTDYYMNWVRQPPGKALEWLGFIGNKANGYTTEYSASVKGRFTISRDKSQSILYLQMNTLRAEDSATYYCTRDRGLRFYFDYWGQGTTLTVSSASVAAPSVFIFPPSDEQLKSGTASVVCLLNNFYPREAKVQWKVDNALQSGNSQESVTEQDSKDSTYSLSSTLTLSKADYEKHKVYACEVTHQGLSSPVTKSFNRGEC
notes: also called 2+1 H2H anti-4-1BB (20H4.9)×anti-CEA (A5B7) huIgG1 P329GLALA
In [1], B1 gave an EC50 of 48.8 nM. In assay [2], the “EC50 of NFκB-luciferase activation curve, no CEA+ cells” value amounted to 0.04 nM; the “EC50 of NFκB-luciferase activation curve, with CHO-k1-cynoCEACAM5 clone 8” value is 0.07 nM; the “EC50 of NFκB-luciferase activation curve, with CHO-k1-humanCEACAM5 clone 11” value is 0.04 nM; the “EC50 of NFκB-luciferase activation curve, with CHO-k1-humanCEACAM5 clone 12” value came to 0.03 nM. In assay [3], this molecule showed an EC50 of 12.9 nM. For the same molecule, the EC50 in [4] is 11.4 nM. The molecule further yielded an AUC in assay [5] of 4850. This molecule also came in with an EC50 in assay [6] of 13.9 nM. Also, in assay [7], the “AUC of NFκB-luciferase activation curve, no CEA+ cells” value was found to be 1320; the “AUC of NFκB-luciferase activation curve, with CHO-k1-cynoCEACAM5 clone 8” value turned out to be 43100; the “AUC of NFκB-luciferase activation curve, with CHO-k1-humanCEACAM5 clone 11” value amounted to 65700; the “AUC of NFκB-luciferase activation curve, with CHO-k1-humanCEACAM5 clone 12” value worked out at 58900.

B2: 1+1 4-1BB (20H4.9)/PD-L1 human IgG1 PGLALA (bispecific antibody)
heavy 1: B1 heavy 1
heavy 2: not shown
light 1: not shown
light 2: not shown
notes: Monovalent for 4-1BB and for PD-L1; also called 1+1 anti-4-1BB (20H4.9)×anti-PD-L1 huIgG1 P329GLALA; 1+1 H2H 4-1BB (20H4.9)/PD-L1 human IgG1 PGLALA
For B2, in the assay with human 4-1BB Fc(kih), the binding result is given as “binds”. Further, the “EC50 of NFκB-luciferase activation curve, with MKN45-huPD-L1 cells” value in assay [8] is 0.1 nM.

B3: anti-4-1BB (20H4.9) huIgG1 P329GLALA (antibody, V domains shown)
VH: QVQLQQWGAGLLKPSETLSLTCAVYGGSFSGYYWSWIRQSPEKGLEWIGEINHGGYVTYNPSLESRVTISVDTSKNQFSLKLSSVTAADTAVYYCARDYGPGNYDWYFDLWGRGTLVTVSS
VL: EIVLTQSPATLSLSPGERATLSCRASQSVSSYLAWYQQKPGQAPRLLIYDASNRATGIPARFSGSGSGTDFTLTISSLEPEDFAVYYCQQRSNWPPALTFGGGTKVEIK
notes: Standard huIgG1 P329G LALA antibody with two anti-4-1BB Fabs
As to B3, in [2], the “EC50 of NFκB-luciferase activation curve, no CEA+ cells” value came out at 0.19 nM; the “EC50 of NFκB-luciferase activation curve, with CHO-k1-cynoCEACAM5 clone 8” value is 0.17 nM; the “EC50 of NFκB-luciferase activation curve, with CHO-k1-humanCEACAM5 clone 11” value came to 0.18 nM; the “EC50 of NFκB-luciferase activation curve, with CHO-k1-humanCEACAM5 clone 12” value was 0.19 nM. The binding result in assay [9] is “no binding (tested: about 300 nM)”. Besides, in assay [10], it took 0.073 nM to reach a half-maximal effect (EC50). The molecule also gave an AUC in assay [5] of 136. Further, the binding result in [11] is given as “no binding (tested: 100 nM)”. Moreover, in assay [7], the “AUC of NFκB-luciferase activation curve, no CEA+ cells” value amounted to 5070; the “AUC of NFκB-luciferase activation curve, with CHO-k1-cynoCEACAM5 clone 8” value is 4920; the “AUC of NFκB-luciferase activation curve, with CHO-k1-humanCEACAM5 clone 11” value is 15400; the “AUC of NFκB-luciferase activation curve, with CHO-k1-humanCEACAM5 clone 12” value stood at 11900.
